Experimental data taken from article PMC9576766, “The human TRPA1 intrinsic cold and heat sensitivity involves separate channel structures beyond the N-ARD domain” (Nature Communications, 2022).

Target: the molecule itself
Assay: SEC; gel filtration on a Sephadex 100 (G-100) size exclusion column; 20 mM HEPES, 10% glycerol, 150 mM NaCl, pH 7.8, 0.014% Fos-Choline-14; immunoglobulin of 150 kDa as reference for the tetrameric fraction

B1: Δ1–854 hTRPA1 (human TRPA1 without its N-terminal ankyrin repeat domain and transmembrane segments S1–S4) (domain or fragment, UniProt O75762 855-1119, looked up)
chain: NCGIFIVMLEVILKTLLRSTVVFIFLLLAFGLSFYILLNLQDPFSSPLLSIIQTFSMMLGDINYRESFLEPYLRNELAHPVLSFAQLVSFTIFVPIVLMNLLIGLAVGDIAEVQKHASLKRIAMQVELHTSLEKKLPLWFLRKVDQKSTIVYPNKPRSGGMLFHIFCFLFCTGEIRQEIPNADKSLEMEILKQKYRLKDLTFLLEKQHELIKLIIQKMEIISETEDDDSHCSFQDRFKKEQMEQRNSRWNTVLRAVKAKTHHLEP
notes: keeps most of the S4-S5 linker (N855, C856), S5-S6 and the C-terminal domain; gene optimised for expression in insect cells; the vector pTriEx-3 is named; The tetramer is by gel filtration; a smaller monomeric fraction eluted as well; also called S1–S4 transmembrane domain deleted hTRPA1
- stoichiometry N: 4
